The values below come from US20260152557A1 (Adimab, published 2026).

Positions count from the first letter of the chain named.

B1: Fab of ADI-74966 (Antibody No. 4) (Fab, V domains shown)
VH: QVQLVQSGAEVKKPGASVKVSCKASGFNIKDYYMHWVRQAPGQRLEWMGWIDLENANTIYDAKFQGRVTITRDTSASTAYMELSSLRSEDTAVYYCARDHYHRYFYDVWGQGTLVTVSS
VL: DIVMTQSPDSLAVSLGERATINCKSSQSLLNARTGHNYLAWYQQKPGQPPKLLIYWASTRESGVPDRFSGSGSGTDFTLTISSLQAEDVAVYYCKQSYSHRTFGGGTKVEIK
notes: Fab made by papain digestion of the human IgG1 (yeast- or CHO-produced); also called Antibody No. 4 Fab; ADI-74966 Fab
B2: Fab of ADI-79844 (Antibody No. 10) (Fab, V domains shown)
VH: B1 VH with H100A, H102G
VL: B1 VL with H36K, Y98H, H100R
notes: Fab made by papain digestion of the yeast-produced human IgG1; also called Antibody No. 10 Fab; ADI-79844 Fab
B3: Fab of ADI-79845 (Antibody No. 11) (Fab, V domains shown)
VH: B1 VH with H100A, H102G
VL: B1 VL with H36K
notes: Fab made by papain digestion of the yeast-produced human IgG1; also called Antibody No. 11 Fab; ADI-79845 Fab
B4: Fab of ADI-79848 (Antibody No. 9) (Fab, V domains shown)
VH: B1 VH with H100A, H102G
VL: B1 VL with H100R
notes: Fab made by papain digestion of the yeast-produced human IgG1; also called Antibody No. 9 Fab; ADI-79848 Fab
B5: Fab of ADI-79843 (Antibody No. 8) (Fab, V domains shown)
VH: B1 VH with H100A
VL: B1 VL with H36K, H100R
notes: Fab made by papain digestion of the yeast-produced human IgG1; also called Antibody No. 8 Fab; ADI-79843 Fab
B6: Fab of ADI-79842 (Antibody No. 7) (Fab, V domains shown)
VH: B1 VH with H102G
VL: B1 VL with H36K, H100R
notes: Fab made by papain digestion of the yeast-produced human IgG1; also called Antibody No. 7 Fab; ADI-79842 Fab
B7: ADI-79842 (Antibody No. 7), human IgG1 (antibody, V domains shown)
VH: B1 VH with H102G
VL: B1 VL with H36K, H100R
notes: Tested as yeast-produced aglycosylated human IgG1
B8: ADI-79847 (Antibody No. 13), human IgG1 (antibody, V domains shown)
VH: B1 VH
VL: B1 VL with Y98H, H100R
notes: as for B7
B9: ADI-79843 (Antibody No. 8), human IgG1 (antibody, V domains shown)
VH: B1 VH with H100A
VL: B1 VL with H36K, H100R
notes: as for B7
B10: ADI-79844 (Antibody No. 10), human IgG1 (antibody, V domains shown)
VH: B1 VH with H100A, H102G
VL: B1 VL with H36K, Y98H, H100R
notes: as for B7
B11: ADI-79848 (Antibody No. 9), human IgG1 (antibody, V domains shown)
VH: B1 VH with H100A, H102G
VL: B1 VL with H100R
notes: as for B7
B12: ADI-79846 (Antibody No. 12), human IgG1 (antibody, V domains shown)
VH: B1 VH with E82G, H102G
VL: B1 VL with Y98H
notes: as for B7
B13: ADI-79845 (Antibody No. 11), human IgG1 (antibody, V domains shown)
VH: B1 VH with H100A, H102G
VL: B1 VL with H36K
notes: as for B7

T3 sequence (Q95LI5 22-198): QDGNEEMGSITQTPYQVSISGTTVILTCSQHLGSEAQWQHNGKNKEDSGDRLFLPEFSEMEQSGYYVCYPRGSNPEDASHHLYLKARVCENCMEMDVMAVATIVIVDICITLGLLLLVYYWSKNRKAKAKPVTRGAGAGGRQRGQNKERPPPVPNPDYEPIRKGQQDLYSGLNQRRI
T1 sequence (chain, as listed by the source mutant, form in doubt, chain 1 of 2): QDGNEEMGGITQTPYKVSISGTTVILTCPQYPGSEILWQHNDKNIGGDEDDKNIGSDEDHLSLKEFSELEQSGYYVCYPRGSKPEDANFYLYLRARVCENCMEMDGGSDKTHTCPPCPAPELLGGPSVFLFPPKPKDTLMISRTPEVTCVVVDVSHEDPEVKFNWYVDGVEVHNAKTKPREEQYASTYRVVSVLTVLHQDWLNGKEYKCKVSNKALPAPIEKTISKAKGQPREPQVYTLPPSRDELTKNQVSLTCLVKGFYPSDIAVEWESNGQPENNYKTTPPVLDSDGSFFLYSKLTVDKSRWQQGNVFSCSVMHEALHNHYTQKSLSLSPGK
T1 sequence (P04234 22-100, stated change not applied, form in doubt, chain 2 of 2): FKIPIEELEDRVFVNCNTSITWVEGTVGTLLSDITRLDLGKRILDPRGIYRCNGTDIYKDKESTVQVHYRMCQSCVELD

One experiment has as its target T1, human CD3εδ-Fc heterodimer (Hu CD3ε Fc / CD3δ Fc-HIS) (human, UniProt P04234 22-100).
T1 construct: range 22-100; Produced in HEK 293 cells with a heterologous signal peptide; heterodimer purified by Ni Sepharose and Mono Q; also called Hu CD3εδ Fc heterodimer; CD3εδ Fc-HIS heterodimer; not shown: Fc-HIS part of CD3δ Fc-HIS
Put plainly: SPR (Biacore 8K), CHO-produced Fab, monovalent, pH 6.0. The protocol:
(§1) Anti-CD3 antibodies (Antibody Nos. 1-13) were produced as human IgG1 antibodies in yeast or Chinese hamster ovary (CHO) cells, and Fab fragments were generated from the IgG1 antibodies by papain digestion and purified IgGs produced in yeast were aglycosylated. CHO produced IgGs had standard CH2 glycosylation. […] Monovalent binding affinity to human or cynomolgus CD3εδ-Fc at pH 7.4 and pH 6.0 were measured via surface plasmon resonance (SPR) using the BIACORE® 8K (Cytiva, previously GE Healthcare Life Sciences) system and analyzed using BIACORE® Evaluation Software.
(§2) BIACORE® KD measurements (surface plasmon resonance; SPR). BIACORE® affinity measurements were performed generally as previously described. Briefly, human CD3εδ-Fc heterodimer produced as described above was immobilized to a NiNTA sensor chip in a BIACORE® 8K (Cytiva, previously GE Healthcare Life Sciences) to a response level of ˜500 RUs. […] The sensor chip was doubly regenerated between cycles using 0.35 M EDTA and 0.1 M NaOH. The resulting data were double reference subtracted and fit to a 1:1 binding model using BIACORE® Evaluation Software.
The molecule B1 gave a Kd of 19.5 nM.

In a further experiment the target is T2, cynomolgus CD3εδ-Fc heterodimer (Cy CD3ε Fc / CD3δ Fc-HIS) (cynomolgus, UniProt Q95LI8 22-100).
T2 construct: range 22-100; Produced in HEK 293 cells; also called Cy CD3εδ Fc heterodimer; not shown: Fc-HIS part of CD3δ Fc-HIS
T2 sequence (chain, as listed by the source mutant, form in doubt, chain 1 of 2): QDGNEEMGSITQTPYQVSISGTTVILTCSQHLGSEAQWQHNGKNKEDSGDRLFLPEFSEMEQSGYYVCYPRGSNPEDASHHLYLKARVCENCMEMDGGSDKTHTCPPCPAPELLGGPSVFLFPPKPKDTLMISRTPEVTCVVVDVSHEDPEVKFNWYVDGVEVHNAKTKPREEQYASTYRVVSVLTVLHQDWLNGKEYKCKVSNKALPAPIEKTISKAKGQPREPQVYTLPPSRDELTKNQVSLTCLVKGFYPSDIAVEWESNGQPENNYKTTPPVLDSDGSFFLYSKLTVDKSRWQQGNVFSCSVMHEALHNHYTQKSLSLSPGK
T2 sequence (Q95LI8 22-100, stated change not applied, form in doubt, chain 2 of 2): as the sequence (P04234 22-100, stated change not applied, form in doubt, chain 2 of 2) above, with I5V, N15K, I20V, S32T, D33N, I34N, T64A, S74N counted along it
The description is as above. Here is the method: as §1, §2
Turning to B1, the Kd turned out to be 26.1 nM.

For the next experiment, the target named is T1, human CD3εδ-Fc heterodimer (Hu CD3ε Fc …). Put plainly: SPR (Biacore 8K), yeast-produced Fab, monovalent, pH 6.0. Here is the method:
as §1, §2
B2 came in with a Kd of 2.34 nM.
The molecule B3 registered a Kd of 1.96 nM.
In turn, B4 registered a Kd of 5.76 nM.
Molecule B1 showed a dissociation constant (Kd) of 16.3 nM.
Take B5: the Kd stood at 0.796 nM.
With B6, the affinity, expressed as Kd, was 6.16 nM.

A further experiment shares this target. Briefly: SPR (Biacore 8K), yeast-produced Fab, monovalent, pH 7.4. Here is the method:
as §1, §2
A general note: Surface plasmon resonance follows binding to a sensor surface in real time, without labels.
B2 registered a Kd of 3.45 nM.
B3: binding was put at a Kd of 8.5 nM.
Turning to B4, the Kd was 33.4 nM.
In turn, B5 yielded a Kd of 5.9 nM.
Molecule B6 displayed a Kd of 32.6 nM.

The next experiment concerns the target T3, cynomolgus CD3 on HSC-F cells (cynomolgus, UniProt Q95LI5 22-198).
T3 construct: whole, on cells; also called Cyno HSC-F; cynomolgus HSC-F cells
Briefly: flow cytometry, yeast-produced IgG 100 nM on HSC-F cells, pH 6.0. Here is the method:
(§3) Anti-CD3 antibodies Antibody Nos. 1-13 were produced as aglycosylated IgGs comprising a IgG1 Fc region in yeast cells. Binding to human or cynomolgus CD3-expressing cells (human CD3+ Jurkat cells or cynomolgus HSC-F cells, respectively) at pH 7.4 and pH 6.0 were measured by fluorescence-activated single cell sorting (FACS). Normalized cell binding (NCB) values were calculated based on median fluorescence intensity (MFI) values, CD3 negative Jurkat cells were used as a negative control.
(§4) Cell binding assay, CD3+ and CD3− human Jurkat cells (ATCC) and cynomolgus HSC-F cells (NIH) were thawed and washed with cold PBSF buffer, pH 7.4 (PBS+0.1% BSA, pH 7.4). About 200,000 cells were aliquoted per well of a 96-well plate (FACS Assay Plate VWR BD 353263) and pelleted by centrifugation (5 minutes at 500×g). The cells were washed with either PBSF pH 7.4 or PBSF pH 6.0 (PBS+0.1% BSA, pH 6.0), and then resuspended in 100 μl in either PBSF pH 7.4 or PBSF pH 6.0 with IgG antibody (100 nM) produced in yeast as described above. The mixture (cells+antibody) was incubated for 20 minutes on ice, then washed twice with either PBSF pH 7.4 or PBSF pH 6.0. Cells were resuspended in 50 μl of propidium iodide (Roche; 1:500 dilution) and anti-human IgG-RPE (Southern Biotech; 1:100 dilution) prepared in either PBSF pH 7.4 or PBSF pH 6.0, then incubated for 20 minutes on ice in the dark before cells were washed twice with either PBSF pH 7.4 or PBSF pH 6.0. Binding was analyzed on FACS Canto 11.
As for B7, the NCB turned out to be 575.
For B8, the NCB was 2.
As for B9, the NCB is 603.
On to B10, for which the NCB was 603.
As to B11, the NCB was determined as 550.
The molecule B12 came in with an NCB of 235.
Still for that read-out and setting: to B13 belongs 581.

The target of the next experiment is T3, cynomolgus CD3 on HSC-F cells. Put plainly: flow cytometry, yeast-produced IgG 100 nM on HSC-F cells, pH 7.4. The protocol:
as §3, §4
Background: Flow cytometry measures light scatter and fluorescence of single cells or particles in a stream.
In turn, B7 had an NCB of 172.
B8: the NCB stood at 0.
On the same count and under the same terms, to B9 belongs 174; to B10, 160; to B11, 173.
In the case of B12, the NCB is 2.
Take B13: the NCB was determined as 167.

For a further experiment, the target named is T4, human CD3 on CD3+ Jurkat cells (human, UniProt P07766 23-207).
T4 construct: whole, on cells; The whole CD3 complex stands on the cells; also called Human CD3 Jurkat; human CD3+ Jurkat cells
T4 sequence (P07766 23-207): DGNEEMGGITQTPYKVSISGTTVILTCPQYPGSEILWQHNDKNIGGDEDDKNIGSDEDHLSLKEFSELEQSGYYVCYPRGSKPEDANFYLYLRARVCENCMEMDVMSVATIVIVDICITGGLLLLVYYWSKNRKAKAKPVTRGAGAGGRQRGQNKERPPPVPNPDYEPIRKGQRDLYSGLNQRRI
Put plainly: flow cytometry, yeast-produced IgG 100 nM on CD3+ Jurkat cells, pH 6.0. Here is the method: as §3, §4
On to B7, for which the NCB was 208.
Same read-out and setting: to B8 belongs 0; to B9, 207; to B10, 196.
Still for that read-out and setting: to B11 belongs 200; to B12, 65.
B13: the NCB amounted to 200.

In the next experiment the target is T4, human CD3 on CD3+ Jurkat cells. Put plainly: flow cytometry, yeast-produced IgG 100 nM on CD3+ Jurkat cells, pH 7.4. Here is the method: as §3, §4
Consider B7, for which the NCB amounted to 139.
The same measure, in the same setting: to B8 belongs 0; to B9, 149; to B10, 147.
Regarding B11, the NCB was determined as 136.
Regarding B12, the NCB stood at 4.
The same measure, in the same setting: with B13 the figure was 149.

Another experiment addresses T1, human CD3εδ-Fc heterodimer (Hu CD3ε Fc …). Briefly: BLI (Octet), CD3εδ-Fc on AHC sensor, CHO-derived Fab 100 nM in solution, pH 6.0. (In general: In BLI a coated tip is dipped into the sample, and binding shifts an interference pattern.)
In the case of B1, the Kd is 36.7 nM.

The target is the same in a further experiment. Briefly: BLI (Octet), yeast-produced IgG on AHC sensor, CD3εδ-Fc 100 nM in solution, pH 6.0. Here is the method: (§5) Anti-CD3 antibodies Antibody Nos. 1-13 were produced as human IgG1 antibodies in yeast or CHO cells. IgGs produced in yeast were aglycosylated, CHO) produced IgGs had standard CH2 glycosylation. Binding affinity to human or cynomolgus CD3εδ-Fc at pH 7.4 and pH 6.0 was measured via biolayer interferometry (BLI) using the ForteBio OCTET® HTX system and analyzed using the ForteBio software.
(§6) Kinetics were analyzed using the 1:1 binding model.
Take B7: the Kd is 6.52 nM.
Molecule B9 displayed a Kd of 1.6 nM.
Molecule B10 came in with a Kd of 3.6 nM.
As for B11, binding was put at a Kd of 6.47 nM.
Still for that read-out and setting: with B12 the figure was 8.09 nM; with B13, 1.04 nM.

The next experiment has as its target T2, cynomolgus CD3εδ-Fc heterodimer (Cy …). The description is as above. Here is the method: as §5, §6
Molecule B7 gave a Kd of 6.88 nM.
For the molecule B9, the affinity, expressed as Kd, was 1.76 nM.
On the same count and under the same terms, to B10 belongs 2.94 nM.
The same measure, in the same setting: to B11 belongs 6.28 nM; to B12, 11.8 nM.

The next experiment concerns the target T1, human CD3εδ-Fc heterodimer (Hu CD3ε Fc …). Briefly: BLI (Octet), yeast-produced IgG on AHC sensor, CD3εδ-Fc 100 nM in solution, pH 7.4. The protocol: as §5, §6
With B7, the Kd was 16.1 nM.
On the same count and under the same terms, to B9 belongs 6.64 nM; to B10, 6.51 nM.
B11 yielded a Kd of 11.6 nM.
Same read-out and setting: with B13 the figure was 9.87 nM.

For another experiment, the target named is T2, cynomolgus CD3εδ-Fc heterodimer (Cy …). The experiment is described as above. The protocol:
as §5, §6
B7 gave a Kd of 17.9 nM.
Regarding B9, the Kd stood at 5.66 nM.
The molecule B10 showed a Kd of 5.42 nM.
B11: the affinity, expressed as Kd, was 14.5 nM.
For B13, the affinity, expressed as Kd, was 8.06 nM.

As a reminder, the Kd is the concentration at which binding is half-saturated. Low values mean tighter binding, high ones weaker binding.
